These results are taken from patent publication US20230148181A1, “ENZYME FOR THE CONVERSION OF CHLOROGENIC ACID INTO ISOCHLOROGENIC ACID” (UNIVERSITE DE LORRAINE, priority 2020, published 2023).

Holding throughout (type): biochemical
The nature of data set [1]: in vitro enzyme assay of purified recombinant IbGDSL (produced in N. benthamiana): conversion of CGA into 3,5-DCQ, UPLC-MS. The method, then:
The in vitro enzyme assays are conducted on the purified recombinant enzyme produced in a plant system. After 6 days of co-culture, N. benthamiana leaves agro-infiltrated with the vector carrying the gene of interest, are harvested and ground in extraction buffer (20 mM sodium phosphate, 0.5 M NaCl, pH 7.4). The extract is then centrifuged and the supernatant containing all the soluble proteins including IbGDSL is recovered and sterilised by 0.2 μm filtration. Protein purification is then conducted according to the supplier's instructions on Nickel columns (HisTrap HP-GE HEALTHCARE). […]
Enzyme assays are performed in a 50 μl volume with 200-400 ng of the purified protein (that is a few μl). The optimal reaction pH will be determined using a polybuffer (0.1 M Tris/20 mM MES/0.1 M acetic acid) from which a pH range of 4 to 9 will be constructed. […]
3,5-DCQ quantification is done by measuring the area of the peak of a 3,5-DCQ standard at 330 nm. […] The contents of the other compounds (chlorogenic acid and the other DCQ isomers) are expressed as 3,5-DCQ equivalents. The content is calculated according to the following formula for a compound: […]
A pH range between 4 and 9 was established to determine the optimal pH for the conversion of CGA into 3,5-DCQ by virtue of IbGDSL. […] From the curve obtained it was determined that the optimal reaction pH is between 6 and 7 (FIG. 3A). […]

The nature of data set [2]: bioconversion of pure CGA into 3,5-DCQ by P. pastoris culture or supernatant expressing IbGDSL. The method, then: The bioconversion of CGA into 3,5-DCQ in vivo requires the establishment of a highly metabolically active P. pastoris culture. The yeasts are cultured in nutrient medium containing a 100 mM potassium phosphate buffer with a pH adjusted to pH 6.0. This allows the medium in which the enzyme obtained from the microbial cells and the substrate will be in contact, to be maintained at pH 6. After establishing an inoculum of 25 mL of yeast culture overnight at 30° C. under agitation of 250-300 rpm, this is used to inoculate a volume of 100-200 mL of nutrient medium in such a way as to obtain an OD600nm around 1. To this culture 0.5% methanol is added in order to initiate the production of IbGDSL. The addition of methanol is repeated every 24 hours to maintain the level of induction of protein production. […]
The first step of this experiment is to show whether the IbGDSL produced by P. pastoris is capable of converting CGA into 3,5-DCQ knowing that the original enzyme could potentially be glycosylated three-fold and that the glycan trees generated by P. pastoris are not comprised and organised in the same way as the plant glycan trees. These differences could directly influence the stability and prevent the proper activity of the enzyme. To do so, supernatants from two P. pastoris cultures, one transformed with the empty vector (negative control) and the other with the vector carrying the gene encoding IbGDSL were recovered after 3 days of methanol induction. These supernatants were incubated at pH 6.5 with 10 mM chlorogenic acid for 30 minutes at 36° C. The enzymatic reaction was then stopped with the addition of ethanol and analysed by UPLC-MS.
The second step of this experiment is to show whether the CGA directly added to the P. pastoris culture medium expressing the enzyme could be directly converted into 3,5-DCQ. The objective is to avoid the purification step of the enzyme if necessary.
[…] This experiment was conducted at 30° C., the ideal temperature for the culture and growth of the P. pastoris organism.

A short description of data set [3]: bioconversion of chlorogenic acid from green coffee (Coffea canephora) extract into 3,5-DCQ by IbGDSL from P. pastoris. The method, then: The bioconversion reaction of CGA into 3,5-DCQ was also carried out from a green coffee (Coffea canephora) extract whose composition is indicated in FIG. 7A. This green coffee extract, comprising a CGA concentration equivalent to 10 mM and bioconverted over a period of 50 hours, at 30° C. and pH 6, led to a new extract whose composition is shown in FIG. 7B. […] Furthermore, no other caffeic acid-containing substrate than chlorogenic acid is biotransformed as no decrease in peaks is observed except for that corresponding to CGA. Bioconversion of green coffee extract with IbGDSL increases the 3,5-DCQ content initially present in the extract 4.5-fold (200 mg/L at T0 and 900 mg at T50h) for a starting CGA concentration equivalent to 10 mM. Bioconversion of CGA into 3,5-DCQ from the green coffee extract was performed after 4 and 7 days, in order to analyse the effect of a reaction with GDSL taking place over a long period of time (FIG. 9). […] The concentration of the IbGDSL enzyme obtained by fermentation of P. pastoris accelerates the reaction speed of the conversion of CGA into 3,5-DCQ (FIG. 10). It is noticed that the same level of 3,5-DCQ concentration can be obtained for enzyme concentration factors of 10-, 20- and 37-fold after 60 h of bioconversion.

B1: IbGDSL: recombinant GDSL esterase/lipase enzyme of Ipomoea batatas (SEQ ID No. 1) converting chlorogenic acid into isochlorogenic acid (protein)
chain: MAAAAPSSSLLGVLMLLASIGYAAACYSAVFGFGDSLTDAGNLIRLEPDGTVPHMYFPPYGETYFDKPTGRCSDGRLIVDLIAQHYGLPLPPPSIPASLEGDKNRLRAGVNFAVVGSRALDAQFYEQRDIFDTVTNVSMTDQLNWFKELLPSLCSSPHDCKELLDGSLFVLGEFGGNDYTHSLLSGKGINVIRPFIPIVTRAIAQAVHELVELGARTVMIPSVLPLGCAASYLTYYPSPNPDDYDELGCLIWVNEMASYHNQLLQQQLAHVRELHPYANIVFADIYNAAMEVYQGPDTYGFSGGALRACCGGGGPYNFNTSAQCGNEGATACDNPSSYVNWDGYHLTEAAYQCITTGLLEGPYTYPRMKNLCRFDSRKTSRVAQI
modifications: Ipomoea batatas
Take B1: the “CGA concentration from which a slowing down of the enzyme activity is observed” value in data set [1] (pH 6.5, 30 minutes of incubation at 36° C.) was at least 10 mM. Besides, the “temperature of maximum conversion” value in data set [1] (purified IbGDSL, 10 mM CGA, pH 6.5, temperature range 15-45° C.) was found to be 37 °C. Besides, the “bioconversion yield of CGA into 3,5-DCQ” value in data set [2] (10 mM CGA added directly to culture, pH 6, 30° C., 3 days, stoichiometric limit 50%) is “around 44%”. Also, the “maximum yield of conversion of pure CGA into 3,5-DCQ” value in data set [2] (after 50 hours of bioconversion, 5- and 7.5-mM starting CGA) was 32%. Further, in data set [2] (after 50 hours of bioconversion, starting pure CGA 7.5 and 9 mM), the “3,5-DCQ content, maximum amounts” value is on record as around 1.2 g/L. Besides, the “activity of enzyme secreted in P. pastoris supernatant (3,5-DCQ peak)” value in data set [2] (supernatant after 3 days methanol induction, pH 6.5, 10 mM chlorogenic acid, 30 minutes at 36° C.) is reported as “functional”. The “product specificity of the bioconversion” value in data set [3] (green coffee extract equivalent to 10 mM CGA, 50 hours, 30° C., pH 6) is “exclusively catalyses the formation of 3,5-DCQ”. Also, the “3,5-DCQ content at T50h” value in data set [3] (starting CGA equivalent to 10 mM, 30° C., pH 6) was determined as 900 mg. The “increase of the 3,5-DCQ content initially present in the extract” value in data set [3] (starting CGA equivalent to 10 mM, T50h versus T0) was found to be 4.5 fold.
